Source: the nanobody polyreactivity screen of Harvey et al. (2022)

Assay: yeast display, Sf9 membrane polyspecificity reagent, FACS + sequencing; frameworks hold sequencing errors
Method in brief: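 Nanobodies from a synthetic yeast display library (Saccharomyces cerevisiae BJ5465), induced 36–48 hours with galactose, were stained 1 hour at 4 °C with 10% biotinylated, detergent-solubilized Sf9 membrane reagent, enriched on streptavidin microbeads, then FACS-sorted. Anti-HA (expression) and streptavidin (reagent binding) fluorescence set low and high (top ~1%) gates. Polyreactivity labels come from the gate of origin. Genes were colony-PCR amplified, MiSeq 2 × 250 sequenced and filtered by CDR length.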

QVQLVESGGGLVQAGGSLRLSFAASGRTFRYYAMGWYRQAPGKERELVAAISGRGGSTYYADSVKARFTISRDNAKNSVYLQMNRQKPEDTAVYYCAASFYSIRYDYWGQGTQVTVSS
polyreactivity (PSR sort gate): high polyreactivity

QVQLVESGGGLVQAGGSLRLSCAASGRNFSFNTMVWYIQAPRKERELVAAITSSSARTYYADSVKGRFTISRDNAKNTVYLQMNSLKPEDTAVDYCDTRDWVGSVRMGYWGQGTQVTVSS
polyreactivity (PSR sort gate): high polyreactivity

QVQLVESGGGLVQAGGSLRLSCAASGRTLGYNAMGWYRQAPGKARELVASINSGVSTNYADSVQGRFTISRDNAKNTVYLQMNSLKPEDTAVYYCAAEKYGRGAGREGWESDYWGQGTQVTVSS
polyreactivity (PSR sort gate): low polyreactivity

QVQLVESGGGLVQAGGSLRLSCAASGSIFRTYAMGWYRQAPGKERELVATITFGGVSTYYADSVKGRFTISRDNAKTTVYVQKTSLKPEDTAVYYCAAEVYTRFWRVYRFDYWGQGTQVTVSS
polyreactivity (PSR sort gate): low polyreactivity

QVQLVESGVGLVQAGGSLRLSCAASGSIFQYNAMGWYRQAPGKERELVAAITSTGDTNYADSVKGRFTISRDNAKNTVYLQMNSLKAEDTAVYFCAADVYGTVRRVGWYYVGEGYDYWGQGTQVTVSS
polyreactivity (PSR sort gate): low polyreactivity

QVQLVESGGGVVQAGGSLRLSCAASGRTFSYNALGWNRQAPGKEREVVAAINGDGGSTYYADSVKGRFTSSRDNAKNTVYLQMNSLKPEDTAVYYCNRRGIYRYGYWGQGTEVTVSS
polyreactivity (PSR sort gate): high polyreactivity

QVQLVETGGGLVQAGGTLRLSCAASGSTFNAYAKGWYIQAPGKERELVAVISSSGGRTYYADSEKGRFTISRDNAKNTVYLQLNSLKPEDTAVYYCNADVKYLYNHWGQGTQVTVSS
polyreactivity (PSR sort gate): high polyreactivity

QVQLVESGGGLVQAGGSLRLSCAASGRIFYRNAMGWYRQAPAKERELVAAISWSGGRTYYADSVKGRFTISRDNAKNTVYLQMNSLKPEDTAVYYCNARTGYYTGQYDYWGQGTQVTVSS
polyreactivity (PSR sort gate): high polyreactivity

QVQLVESGGGLDQARGSLRLSCAASGFIFQIYAMGWYRQAPGKERELVAAITSRAGSTYYADSVKGRFTISRDNAKNTVYFQMNSLKPEDTAVYFCNKVFFLPTSRAYEYWGQGTQVTVSS
polyreactivity (PSR sort gate): high polyreactivity

QVQLVESGGGLVQAGGSLRFSSPASGLTFGTYAMGWYRQAPGKERELVAAISTSGVRTYYADSVKGRFTISRDIAKNTVYLQMNSLKPEDTAVYYCAARYNRAYSRDYWGQGSQVTVSS
polyreactivity (PSR sort gate): high polyreactivity

QVQLVESGGGLVQAGGSLRLSCAASGSTFLYNAMGWYRQAPGKERELVAAISTTGARTNYADSVKGRFTISRDNAKNTVYLQMNSLKPEDTAVYYCKDRRGHYWGQGTQVTVSS
polyreactivity (PSR sort gate): high polyreactivity

QVQLVESGGGLVQAGGSLRLSCADSGFIFGYYAKGWYRQAPGKERELVADISRGGNTNYADSVKGRFTISRDNAKNTVYLQMNSLKPEDTAVYYCARYRRGKMDYCGQGTQVTVSS
polyreactivity (PSR sort gate): high polyreactivity

QVQLVESGGGLIQAGGSLRLSCAASGSTFANNAMGWYRQAPGKERELVASITRSGSTYYADSVKGRFTISRDNAKNTVYLQMNSLKPEDTAVYYCAADSRRYGVRFDYWGQGTQVTVSS
polyreactivity (PSR sort gate): low polyreactivity

QVQLVESGGGLVQAGGSLRLSCAASGLIFVINAMGWYRQAPGKERELVATISSGVSTNYADSVKGRFTISRDNAKNTVYLQMNSLKPEDTAVYYCKKGQTVSRGYRLYERYDYWGQGTQVTVSS
polyreactivity (PSR sort gate): low polyreactivity

QVQLVVSGGGLVQAGGSLRLSCAASGNIFESYGMGGYRQAPGKERELVANINTSCGSTYYADSVKGRFTISRDNAKNTVYLQMNSLKPEDTAVYYCAAEWYPYPWGYGYWGQGTQVTVSS
polyreactivity (PSR sort gate): low polyreactivity

QVQLQESGGSPVQAGGGLRLSCAASGYISVGSVMGWYRQAPSKERELVASIDQGANTNYADSVKGRFTISRDNAKNNVYLQMNSLKPEDTAVYYCATETTYILNYWGQGTQVTVSS
polyreactivity (PSR sort gate): low polyreactivity

QVQLVESGGGLVQAGGSLRLSSAASGFTFFYYAMGWYRQAPGKERELVAAISASGGSTSYADSVKGRFTISRDNAKNTVYLQMNSLKPEDTAVYYCAARVYSVRSGYYYWGQGTQVTVSS
polyreactivity (PSR sort gate): high polyreactivity

QVQLVESGGGLVQAGGSLRLSCAASGRTFTKYAMGWYRQAPGKERELVAAISNSGGSTFYADSVKGRFTISRDNAKNTVYLQMNSLKPEDTAVYYCAVDLGDTQYVPFDYWGQGTQVTVSS
polyreactivity (PSR sort gate): low polyreactivity

QVQLVESGGGLVQAGGSLRLSCAASGRIFEYNAMGWYRQAPGKERELVAAITSDGSTNYADSVKGRFTISRDNEKNTVYLQMNSLKPEDTAVYYCNTRYSLYTKYAYYDEHDYWGQGTQVTVSS
polyreactivity (PSR sort gate): low polyreactivity

QVQLVESGGGLVQAGGSLRLSCAASGRILDYNAMGWYIQAPGKERELVAAITLNGGGTYYADSVKGRFTISRDNAKNSVYLQMNSLKPEDTAVYYCNADYRRYPEFDYWGQGTHVTVSS
polyreactivity (PSR sort gate): high polyreactivity

QVQLVESGGGLVQAGGSLRLSSAASGSIFYGNSMGWYRQAPGKERELVAAISQSGGSTYYADSVKGRFTISRDNAKNTVYLQMNSLKPEDTAVYYCAAYTPYATWRYDYWGQGTQVTVSS
polyreactivity (PSR sort gate): low polyreactivity

QVHLVESGGGLVQAGGSLRLSCAASGRTFYGNAMGWYRQATGKERELVAAINRDGGTYYADSVKGRFTISRDNAKNTVYLQMNSLKTEDTAVYYCNAVKRGIRYGYWGQGTQVTVSS
polyreactivity (PSR sort gate): high polyreactivity

QVQLVESGGGLVQAGGSLRLSCAASGSIQGKNAMRWYRPAPGKERELVAAISTRGGSTYYADSVKGRFTISRDNAKNSVYFQMNSLKPEDTAVYYCNARWREYKAKWGSRYDYWGQGTQVTVSS
polyreactivity (PSR sort gate): high polyreactivity

QVQLGESGGGLVQAGGSLRLSCAASGSTFYVYAQGWYRPAPGKERELVAAISSSGARTYYADSVKGRFTISRDNAKNTVYLQMNCLKPDDTAVLYCAARRYYKFYYWGHGTQVTVSS
polyreactivity (PSR sort gate): high polyreactivity

QVQLVESGGGLVQAGGSLRLSCAASGRIFIFNAMGWYRQAPGKERELVAAISTRGGSTRYADSVKGRFTISRDNAKNTVYLQMNSLKPEDTAVYYCAAVYLYYAYAFDYWGQGTQVTVSS
polyreactivity (PSR sort gate): high polyreactivity

QVQLVESGGGLVQAGGSLRLSCAASGFTFGIYAMGWYRQAPGKERELVADISSGGSTYYADSVKGRFTISRDNAKNTVYLQMNSLKPEDTAVYYCARDSWWYHHYDYWGQGTQVTVSS
polyreactivity (PSR sort gate): low polyreactivity

QVQLVESGGGLVQAGGSLRLSCAASGFIDYDNAMGWYRQAPGKERELVAAITSGGSTYYADSVKGRFTISRDNAKNTVYLQMNSLKPEDTAVYYCARESGYRAYEIQFYYWGQGTQVTVSS
polyreactivity (PSR sort gate): high polyreactivity

QVQLVESGGGLVQAGGSLRLSCAASGSIFTEDAMGWYRQAPGKERELVAAISWSGATTYYADSVKGRFTISRDKAKNPVDLQMNSLKPEDTAVYYCAARWANRSYEYWGQGTQVTVSS
polyreactivity (PSR sort gate): low polyreactivity

QVQLVESGGGLVQAGGSLRLSCAASGSIFGYNAMGWYRQAPGKERELVAAISSSGSSTYADSVKGRFTISRDNAKNTVYLQMNSLKPEDTAVYYCNKTTLLTVEYDYWGQGTQVTVSS
polyreactivity (PSR sort gate): low polyreactivity

QVQLVESGGGLVQAGGSLRLSCAASGSIIAINAMGWYRQAPGKERDLVAAISWNTGTTYYADSVKGRFTISRDNAKNTVYLQMNSLKPEDTAVYYCAADLWRWESLYKIWLPQYDYWGQGTQVTVSS
polyreactivity (PSR sort gate): high polyreactivity

QVQLVESGGGLVQAGGSLRLSCAASGSIFVKNAMGWYIHAPGKERELVATISRRGGSTYYADSVKGRFTISRDIAKNTVYLQMNSMKPEDTAVYYCAADRSNRPYYRQGYDYWGQGTQVTVSS
polyreactivity (PSR sort gate): high polyreactivity

QVQLVESGGGLVQAGGSLRLSCAASGSTFWDYDMGWYRQAPGKERELVASIRNGGSTNYADSVKGRFTISRDNAKNTVYLQMNSLKPEDTAVYYCAADRQPVYPSLGVYWDYGHDYWGQGTQVTVSS
polyreactivity (PSR sort gate): low polyreactivity
